Test results from patent US20140370023A1 (HENRY M JACKSON FOUNDATION FOR THE ADVANCEMENT OF MILITARY …, published 2014).

Assays:
[1] = target: T1, human ERG3 (wild type ERG3 protein, 53 kDa) (human, UniProt P11308 1-479); assay: sandwich ELISA on ERG3 protein lysate, 9FY titrated by fold dilution, absorbance at 450 nm; competitor: immunizing polypeptide
T1 construct: Expressed heterologously in HEK-293 cells (pIRES-EGFP(CMV)-ERG3), as protein lysate in the ELISA, or in LNCaP cells by Ad-ERG3 adenovirus; also called ERG3 antigen
T1 sequence: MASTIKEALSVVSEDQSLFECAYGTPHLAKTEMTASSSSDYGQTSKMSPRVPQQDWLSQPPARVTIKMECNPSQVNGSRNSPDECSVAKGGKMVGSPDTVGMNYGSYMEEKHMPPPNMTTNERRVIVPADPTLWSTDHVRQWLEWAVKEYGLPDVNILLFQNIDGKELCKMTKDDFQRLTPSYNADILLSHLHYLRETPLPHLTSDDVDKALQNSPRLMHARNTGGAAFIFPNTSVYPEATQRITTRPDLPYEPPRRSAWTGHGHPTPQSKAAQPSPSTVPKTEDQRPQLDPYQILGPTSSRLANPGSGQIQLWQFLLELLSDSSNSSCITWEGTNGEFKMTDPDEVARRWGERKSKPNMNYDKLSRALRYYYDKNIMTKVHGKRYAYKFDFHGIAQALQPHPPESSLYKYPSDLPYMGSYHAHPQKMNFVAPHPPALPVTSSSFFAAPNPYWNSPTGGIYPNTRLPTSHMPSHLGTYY

[2] = target: T2, human FLi1 protein with N-terminal FLAG tag (human, UniProt Q01543 1-452, limits assumed); assay: Western blot of transiently expressed FLAG-tagged protein
T2 construct: not shown: N-terminal FLAG tag
T2 sequence (looked up): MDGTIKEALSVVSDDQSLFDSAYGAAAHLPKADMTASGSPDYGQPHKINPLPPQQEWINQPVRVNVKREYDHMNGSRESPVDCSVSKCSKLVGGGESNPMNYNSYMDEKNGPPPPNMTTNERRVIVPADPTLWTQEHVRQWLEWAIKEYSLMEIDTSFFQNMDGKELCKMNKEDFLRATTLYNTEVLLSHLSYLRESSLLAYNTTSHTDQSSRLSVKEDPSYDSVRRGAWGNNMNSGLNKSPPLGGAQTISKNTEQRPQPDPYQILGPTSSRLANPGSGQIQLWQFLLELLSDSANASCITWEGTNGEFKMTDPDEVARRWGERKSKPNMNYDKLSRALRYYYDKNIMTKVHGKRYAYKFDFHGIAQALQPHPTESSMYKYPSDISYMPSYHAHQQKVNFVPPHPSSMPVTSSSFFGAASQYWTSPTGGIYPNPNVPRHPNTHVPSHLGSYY
Procedure: Therefore, the 9FY antibody was tested to see if it can discriminate between human ERG3 and the human FLi1 protein using Western blot assays. In this assay, transiently expressed human ERG3 (encoded by TMPRSS2/ERG3 construct) or human FLi1 protein was evaluated with the 9FY antibody.

[3] = target: T3, immunizing polypeptide (amino acids 42-66 of SEQ ID NO: 1) (human); assay: direct ELISA, peptides plated at 1 to 1000 ng/mL (x axis 'ERG, ng/mL', log scale), probed with 9FY at 1:10,000, absorbance at 450 nm
T3 construct: Chemically synthesized; also called ERG 42-66 polypeptide
T3 peptide: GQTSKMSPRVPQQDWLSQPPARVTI
Procedure: Various concentrations of the immunizing polypeptide and two control polypeptides were plated in wells for ELISA and were probed with 1:10,000 dilution of 9FY antibody. Y-axis indicates absorbance values at 450 nm. On the X-axis the log 10 concentration of the ERG immunizing polypeptide and control polypeptides is shown in ng/ml. […] In sandwich ELISA assay, ERG3 protein lysates were plated in multi-well format plates and were assayed with various concentrations of 9FY antibody in the presence (white bar) or absence of the immunizing polypeptide (shaded bar). Fold dilution is marked on the X-axis. Antibody titration values are marked by shaded bars.
In an ELISA assay, we assessed the sensitivity and specificity of the 9FY antibody measuring the titer of various concentrations of the immunizing polypeptide (i.e. amino acids 42-66 of SEQ ID NO: 1). For direct ELISA, plates were first coated with 100 μl of ERG3 antigen at 1 ng/ml, 10 ng/ml, 100 ng/ml and 1 μg/ml and incubated for 16 h at 4° C. on a shaker before washing the plate five times with PBSt (300 μl/well). […] Absorbance was measured at 450 nm on a […]® Ascent (Thermo Scientific, Waltham, Mass.) ELISA plate reader according to the manufacturer's recommendation and the absorbance were plotted against antibody dilution. […]

B1: 9FY antibody (monoclonal antibody produced by the hybridoma clone 9FY) (antibody, V domains shown)
VH: QIQLVQSGPDLKKPGETVKISCKASGYTFTNYGINWVKQAPGKGFKWMGWIDTYTGEPTYVDDFKGRFVFSLETSASTAYLQINNLKNEDTATYFCVRKRAYDYEIYWGQGTPLTVSS
VL: ENVLTQSPAIMSASLGEKVTLSCRASSSVYYMFWYQQKSDASPKLWIYYTSNLAPGVPARFSGSGSGNSYSLTISSVEGEDAATYYCLQFSTSPWTFGGGTKLEIKR
notes: Mouse (Balb/C) hybridoma antibody purified from ascites over Protein G; sub-type determined to be IgG; also called ERG-MAb; 9FY monoclonal antibody
B1: binds [1]; no binding [2]; binds [3].
